From patent US20080032921A1
Read-outs that look alike come from different tables or passages of the source.

What was measured:
HLA-DR DRB1*0101 (human) [1] = target: HLA-DR DRB1*0101 (human)
HLA-DR DRB1*0301 (human) [2] = assay: competition vs 125I-labeled peptide, purified HLA
HLA-DR DRB1*0401 (human) [3] = assay: competition vs 125I-labeled peptide, purified HLA
HLA-DR DRB1*1302 (human) [4] = assay: competition vs 125I-labeled peptide, purified HLA
HLA-DR DRB1*1501 (human) [5] = assay: competition vs 125I-labeled peptide, purified HLA
HLA-DR DRB4*0101 (human) [6] = assay: competition vs 125I-labeled peptide, purified HLA
[7] = target: purified HLA-DR DRB1*0101 (human); assay: competition with 125I-labelled reference peptide, purified HLA
[8] = target: purified HLA-DR DRB1*0301 (human); assay: as above
[9] = target: purified HLA-DR DRB1*0401 (human); assay: as above
[10] = target: purified HLA-DR DRB1*0404 (human); assay: as above
[11] = target: purified HLA-DR DRB1*0405 (human); assay: as above
[12] = target: purified HLA-DR DRB1*1101 (human); assay: as above
[13] = target: purified HLA-DR DRB1*1302 (human); assay: as above
[14] = target: purified HLA-DR DRB1*1501 (human); assay: as above
[15] = target: purified HLA-DR DRB4*0101 (human); assay: as above
[16] = target: purified HLA-DR DRB5*0101 (human); assay: as above
[17] = target: purified HLA DRB1*0101 (human); assay: competition with 125I-labelled peptide for purified HLA
[18] = target: purified HLA DRB1*0401 (human); assay: as above
[19] = target: purified HLA DRB1*1302 (human); assay: as above
[20] = target: purified HLA DRB1*1501 (human); assay: as above
[21] = target: purified HLA DRB4*0101 (human); assay: as above
HLA-DR DRB1*0101 (human) [22] = assay: competition with 125I-labelled reference peptide on purified HLA-DR
HLA-DR DRB1*0401 (human) [23] = assay: as above
HLA-DR DRB1*1302 (human) [24] = assay: as above
HLA-DR DRB1*1501 (human) [25] = assay: as above
HLA-DR DRB4*0101 (human) [26] = assay: as above
HLA-DR DRB4*0101 (human) [27] = target: HLA-DR DRB4*0101 (human)
HLA-DR DRB1*0101 (human) [28] = assay: competition vs 125I-labeled peptide, purified HLA
HLA-DR DRB1*0101 (human) [29] = assay: competition with 125I-labelled peptide, purified HLA
HLA-DR DRB1*0301 (human) [30] = assay: as above
HLA-DR DRB1*0401 (human) [31] = assay: as above
HLA-DR DRB1*0404 (human) = assay: as above
HLA-DR DRB1*0405 (human) = assay: as above
HLA-DR DRB1*0701 (human) = assay: as above
HLA-DR DRB1*1101 (human) = assay: as above
HLA-DR DRB1*1501 (human) [32] = assay: as above
HLA-DR DRB1*0301 (human) [33] = assay: competition with 125I-labelled reference peptide on purified HLA-DR

VSLVKSDQICIGYHA (modifications not checked) [Flu.HA.11]
IC50 (HLA-DR DRB1*0101 (human) [1]): > 10 µM
IC50 (HLA-DR DRB1*0301 (human) [2]): 511 nM
IC50 (HLA-DR DRB1*0401 (human) [3]): 513 nM
IC50 (HLA-DR DRB1*1302 (human) [4]): 175 nM
IC50 (HLA-DR DRB1*1501 (human) [5]): 14.5 µM
IC50 (HLA-DR DRB4*0101 (human) [6]): 32 nM

LIQLIVSGRDEQSIA (modifications not checked) [Flu.PB2.384]
IC50 [7]: 3.23 µM
IC50 [8]: 53 nM
IC50 [9]: 83 nM
IC50 [10]: 90 nM
IC50 [11]: 460 nM
IC50 [12]: 2010 nM
IC50 [13]: 4.68 µM
IC50 [14]: 420 nM
IC50 [15]: 9.9 nM
IC50 [16]: 1720 nM

IYQILSIYSTVASSLA (modifications not checked) [Flu.HA.529 peptide …]
IC50 [17]: 55 nM
IC50 [18]: 89 nM
IC50 [19]: 13 nM
IC50 [20]: 4.7 nM
IC50 [21]: 18 nM

ILSIYSTVASSLALAI (modifications not checked) [Flu.HA.532 peptide …]
IC50 [17]: 11 nM
IC50 [18]: 91 nM
IC50 [19]: 7.6 nM
IC50 [20]: 20 nM
IC50 [21]: 824 nM

SLMLQIGNMISIWVSHS (modifications not checked) [Flu.NA.21 peptide …]
IC50 [17]: 36 nM
IC50 [18]: 480 nM
IC50 [19]: 44 nM
IC50 [20]: 34 nM
IC50 [21]: 746 nM
IC50 (HLA-DR DRB1*0101 (human) [22]): 36 nM
IC50 (HLA-DR DRB1*0401 (human) [23]): 480 nM
IC50 (HLA-DR DRB1*1302 (human) [24]): 44 nM
IC50 (HLA-DR DRB1*1501 (human) [25]): 34 nM
IC50 (HLA-DR DRB4*0101 (human) [26]): 0.746 µM

KSSFFRNVVWLIKKN (modifications not checked) [Flu.HA.156]
IC50 (HLA-DR DRB4*0101 (human) [27]): > 10 µM
IC50 (HLA-DR DRB1*0101 (human) [28]): 46 nM
IC50 (HLA-DR DRB1*0401 (human) [3]): 474 nM
IC50 (HLA-DR DRB1*1302 (human) [4]): 20 nM
IC50 (HLA-DR DRB1*1501 (human) [5]): 0.832 µM

YIQMCTELKLSDYEG (modifications not checked) [Flu.NP.43]
IC50 (HLA-DR DRB1*0101 (human) [29]): 320 nM
IC50 (HLA-DR DRB1*0301 (human) [30]): 368 nM
IC50 (HLA-DR DRB1*0401 (human) [31]): 392 nM
IC50 (HLA-DR DRB1*0404 (human)): 1640 nM
IC50 (HLA-DR DRB1*0405 (human)): 2690 nM
IC50 (HLA-DR DRB1*0701 (human)): 5.37 µM
IC50 (HLA-DR DRB1*1101 (human)): 5.84 µM
IC50 (HLA-DR DRB1*1501 (human) [32]): 594 nM

WAVYSKDNSIRIGSK (modifications not checked) [Flu.NA.77 peptide …]
IC50 (HLA-DR DRB1*0101 (human) [22]): 5400 nM
IC50 (HLA-DR DRB1*0301 (human) [33]): 291 nM
IC50 (HLA-DR DRB1*0401 (human) [23]): 1600 nM
IC50 (HLA-DR DRB1*1302 (human) [24]): 36 nM
IC50 (HLA-DR DRB1*1501 (human) [25]): 642 nM
IC50 (HLA-DR DRB4*0101 (human) [26]): 19.5 µM

TQGALLNDKHSNGTVKD (modifications not checked) [Flu.NA.115 peptide …]
IC50 (HLA-DR DRB1*0101 (human) [1]): > 10 µM
IC50 (HLA-DR DRB4*0101 (human) [27]): > 10 µM
IC50 (HLA-DR DRB1*0301 (human) [33]): 177 nM
IC50 (HLA-DR DRB1*0401 (human) [23]): 19000 nM
IC50 (HLA-DR DRB1*1302 (human) [24]): 468 nM
IC50 (HLA-DR DRB1*1501 (human) [25]): 822 nM
